Like-named read-outs stand apart in the source and are kept apart here.
Tested on: tetA promoter (PtetA)-lacZ reporter in E. coli KM3
Format: cell-based
Conditions: for relative β-galactosidase activity, inducer atc: anhydrotetracycline 0.4 μM; for relative β-galactosidase activity, inducer Ci: chlorimuron 20 μg/ml (20 ppm); for relative β-galactosidase activity, inducer Ns: nicosulfuron 20 μg/ml (20 ppm); for relative β-galactosidase activity, inducer None / relative β-galactosidase activity, No inducer: no inducer; for relative β-galactosidase activity, inducer Rs: rimsulfuron 20 μg/ml (20 ppm); for relative β-galactosidase activity, inducer Ts: thifensulfuron 20 μg/ml (20 ppm); for relative β-galactosidase activity, inducer Tb: tribenuron 20 μg/ml (20 ppm); for response to thifensulfuron-methyl (Ts), blue colony color: 20 μg/ml Ts, 96-well re-test, FIG. 3
[1] = Table 4, chlorsulfuron 20 μg/ml (20 ppm), 48 hrs at 30° C.
[2] = Table 4, ethametsulfuron 20 μg/ml (20 ppm), 48 hrs at 30° C.
[3] = Table 4, metsulfuron 20 μg/ml (20 ppm), 48 hrs at 30° C.
[4] = Table 4, sulfometuron 20 μg/ml (20 ppm), 48 hrs at 30° C.
[5] = Table 10, chlorsulfuron 2 ppm, 48 hours at 30° C.
[6] = Table 10, metsulfuron 2 ppm, 48 hours at 30° C.
[7] = Table 10, sulfometuron 2 ppm, 48 hours at 30° C.

Molecule | relative β-galactosidase activity, inducer atc (Table 4, 48 hrs at 30° C.) | relative β-galactosidase activity, inducer Ci (Table 4, 48 hrs at 30° C.) | relative β-galactosidase activity, inducer Cs [1] | relative β-galactosidase activity, inducer Es [2] | relative β-galactosidase activity, inducer Ms [3] | relative β-galactosidase activity, inducer Ns (Table 4, 48 hrs at 30° C.) | relative β-galactosidase activity, inducer None (Table 4, 48 hrs at 30° C.) | relative β-galactosidase activity, inducer Rs (Table 4, 48 hrs at 30° C.) | relative β-galactosidase activity, inducer Sm [4] | relative β-galactosidase activity, inducer Ts (Table 4, 48 hrs at 30° C.) | relative β-galactosidase activity, inducer Tb (Table 4, 48 hrs at 30° C.) | Inducer preference (Table 8, inducers given as numbers without key) | relative β-galactosidase activity, inducer Cs [5] | relative β-galactosidase activity, inducer Es (Table 10, ethametsulfuron 2 ppm, 48 hours at 30° C.) | relative β-galactosidase activity, inducer Ms [6] | relative β-galactosidase activity, No inducer (Table 10, 48 hours at 30° C.) | relative β-galactosidase activity, inducer Sm [7] | response to thifensulfuron-methyl (Ts), blue colony color
L1-38: library L1 hit, sulfonylurea-responsive TetR(B) variant (protein, Sulfonylurea responsive repressor L1-38) MGSRLDKSKVINSALELLNEVGIEGLTTRKLAQKLGVEQPTLYWHVKNKRALLDALAIEMADRHHTHFCPLEGESWQDFLRNNAKSMRCALLSHRDGAKVWLGTAWTEKQYETTENMLAFLCQQGFSLENALYAWRAVTMFTLGCVLRDQEWQVAKEERETPTTDSMPPLLRQALELGDHQGAEPAFLFGLELIICGLEKQLKCESGS | 6.4 | 15.3 | 14.0 | 14.8 | 14.7 | 8.7 | 9.5 | 9.5 | 18.3 | 16.7 | 15.8 |  |  |  |  |  |  | 
L1-24: library L1 hit, sulfonylurea-responsive TetR(B) variant (protein, Sulfonylurea responsive repressor L1-24) MGSRLDKSKVINSALELLNEVGIEGLTTRKLAQKLGVEQPTLYWHVKNKRALLDALAIEMLDRHNTHFCPLEGESWQDFLRNSAKSMRCALLSHRDGAKVLLGTAVTEKQYETTENSLAFLCQQGFSLENALYAIRAVRTFTLGCVLVDQERQVAKEERETPTTDSMPPLLRQAKELLDHQGAEPAFLFGLELIICGLEKQLKCESGS | 0.1 | 22.1 | 3.3 | 0.2 | 0.4 | 0.3 | 0.1 | 0.3 | 3.1 | 0.3 | 1.6 |  |  |  |  |  |  | 
L1-29: library L1 hit, sulfonylurea-responsive TetR(B) variant, SEQ ID NO: 10 (protein, Sulfonylurea responsive repressor L1-29) MGSRLDKSKVINSALELLNEVGIEGLTTRKLAQKLGVEQPTLYWHVKNKRALLDALAIEMMDRHQTHFCPLEGESWQDFLRNTAKSMRCALLSHRDGAKVWLGTRWTEKQYETPENMLAFLCQQGFSLENALYAWSAVCNFTLGCVLSDQERQVAKEERETPTTDSMPPLLRQAWELSDHQGAEPAFLFGLELIICGLEKQLKCESGS | 0.0 | 20.9 | 15.8 | 1.7 |  | 0.1 | 0.0 | 0.1 | 2.7 | 0.0 | 0.3 | 9 (weak) | 0.2 | 0.3 | 0.3 | 0.1 | 0.2 | 
L1-20: library L1 hit, sulfonylurea-responsive TetR(B) variant, SEQ ID NO: 6 (protein, Sulfonylurea responsive repressor L1-20) MGSRLDKSKVINSALELLNEVGIEGLTTRKLAQKLGVEQPTLYWHVKNKRALLDALAIEMMDRHQTHFCPLEGESWQDFLRNNAKSMRCALLSHRDGAKVFLGTAWTEKQYETVENLLAFLCQQGFSLENALYALNAVATFTLGCVLWDQEKQVAKEERETPTTDSMPPLLRQAHELGDHQGAEPAFLFGLELIICGLEKQLKSESGS | 2.0 | 13.5 | 22.0 | 15.0 | 12.4 | 1.6 | 1.4 | 2.0 | 6.0 | 2.6 | 2.6 |  |  |  |  |  |  | most intensely responding
L1-28: library L1 hit, sulfonylurea-responsive TetR(B) variant (protein, Sulfonylurea responsive repressor L1-28) MGSRLDKSKVINSALELLNEVGIEGLTTRKLAQKLGVEQPTLYWHVKNKRALLDALAIEMLDRHATHFCPLEGESWQDFLRNNAKSMRCALLSHRDGAKVWLGTAWTEKQYETPENVLAFLCQQGFSLENALYASRAVVTFTLGCVLTDQEKQVAKEERETPTTDSMPPLLRQAWELLDHQGAEPAFLFGLELIICGLEKQLKCESGS | 0.0 | 14.6 | 5.8 | 0.8 | 18.8 | 0.1 | 0.0 | 0.2 | 1.1 | 0.1 | 0.3 |  |  |  |  |  |  | 
L1-9: library L1 hit, sulfonylurea-responsive TetR(B) variant, parent of L2 and L4 (protein, Sulfonylurea responsive repressor L1-09) MGSRLDKSKVINSALELLNEVGIEGLTTRKLAQKLGVEQPTLYWHVKNKRALLDALAIEMLDRHATHFCPLEGESWQDFLRNNAKSMRCALLSHRDGAKVCLGTGFTEKQYETAENSLAFLCQQGFSLENALYAMQAVCIFTLGCVLLDQELQVAKEERETPTTDSMPPLLRQALELKDHQGAEPAFLFGLELIICGLEKQLKCESGS | 0.3 | 9.8 |  |  | 1.2 | 0.3 | 0.3 | 0.4 | 0.6 | 1.1 | 0.4 |  | 2.2 |  | 0.9 | 0.9 | 0.9 | most intensely responding
L1-2: library L1 hit, sulfonylurea-responsive TetR(B) variant, SEQ ID NO: 3 (protein, Sulfonylurea responsive repressor L1-02) MGSRLDKSKVINSALELLNEVGIEGLTTRKLAQKLGVEQPTLYWHVKNKRALLDALAIEMLDRHATHFCPLEGESWQDFLRNNAKSFRCALLSHRDGAKVCLGTAVTEKQYETMENILAFLCQQGFSLENALYARRAVIAFTLGCVLWDQEYQVAKEERETPTTDSMPPLLRQARELIDHQGAEPAFLFGLELIICGLEKQLKCESGS | 1.2 | 13.6 | 4.1 | 5.8 | 1.9 | 1.3 | 1.0 | 1.3 | 4.7 | 1.6 | 1.7 |  |  |  |  |  |  | most intensely responding
L1-31: library L1 hit, sulfonylurea-responsive TetR(B) variant (protein, Sulfonylurea responsive repressor L1-31) MGSRLDKSKVINSALELLNEVGIEGLTTRKLAQKLGVEQPTLYWHVKNKRALLDALAIEMLDRHATHFCPLEGESWQDFLRNNAKSMRCALLSHRDGAKVMLGTRATEKQYETVENRLAFLCQQGFSLENALYAVRAVHWFTLGCVLIDQEMQVAKEERETPTTDSMPPLLRQAYELYDHQGAEPAFLFGLELIICGLEKQLKCESGS | 0.4 | 1.1 | 1.4 | 13.7 | 0.5 | 0.5 | 0.3 | 0.4 | 0.9 | 0.9 | 0.1 |  |  |  |  |  |  | 

— patent US8580556B2, “Sulfonylurea-responsive repressor proteins” (E. I. du Pont de Nemours and Company, priority 2008, dated 2013)
